Target: T1, 19-mer (SEQ ID NO:11) cleavage domain peptide
T1 chain: PRCGNPDVANYNFFPRKPK

B1: Proenzyme pro-MMP-9 (protein)
chain: APRQRQSTLVLFPGDLRTNLTDRQLAEEYLYRYGYTRVAEMRGESKSLGPALLLLQKQLSLPETGELDSATLKAMRTPRCGVPDLGRFQTFEGDLKWHHHNITYWIQNYSEDLPRAVIDDAFARAFALWSAVTPLTFTRVYSRDADIVIQFGVAEHGDGYPFDGKDGLLAHAFPPGPGIQGDAHFDDDELWSLGKGVVVPTRFGNADGAACHFPFIFEGRSYSACTTDGRSDGLPWCSTTANYDTDDRFGFCPSERLYTQDGNADGKPCQFPFIFQGQSYSACTTDGRSDGYRWCATTANYDRDKLFGFCPTRADSTVMGGNSAGELCVFPFTFLGKEYSTCTSEGRGDGRLWCATTSNFDSDKKWGFCPDQGYSLFLVAAHEFGHALGLDHSSVPEALMYPMYRFTEGPPLHKDDVNGIRHLYGPRPEPEPRPPTTTTPQPTAPPTVCPTGPPTVHPSERPTAGPTGPPSAGPTGPPTAGPSTATTVPLSPVDDACNVNIFDAIAEIGNQLYLFKDGKYWRFSEGRGSRPQGPFLIADKWPALPRKLDSVFEERLSKKLFFFSGRQVWVYTGASVLGPRRLDKLGLGADVAQVTGALRSGRGKMLLFSGRRLWRFDVKAQMVDPRSASEVDRMFPGVPLDTHDVFQYREKAYFCQDRFYWRVSSRSELNQVDQVGYVTYDILQCPED
- conversion of pro-MMP-9 into prodomain and active enzyme by stromilysin (HPLC splicing assay): Splicing can be inhibited in a dose dependent manner with micromolar 19-mer (SEQ ID NO:11) peptide.

From patent publication US20050239710
